{"source": "patent US6903135B2", "about": "“Methods and products related to 16-HETE analogs” (Board of Regents, The University of Texas System, priority 1998, dated 2005)", "molecules": {"B1": {"name": "tPA: tissue plasminogen activator, thrombolytic agent (Genentech, Inc.) (protein, UniProt P00750 36-562, looked up)", "Tissue-type plasminogen …": "SYQVICRDEKTQMIYQQHQSWLRPVLRSNRVEYCWCNSGRAQCHSVPVKSCSEPRCFNGGTCQQALYFSDFVCQCPEGFAGKCCEIDTRATCYEDQGISYRGTWSTAESGAECTNWNSSALAQKPYSGRRPDAIRLGLGNHNYCRNPDRDSKPWCYVFKAGKYSSEFCSTPACSEGNSDCYFGNGSAYRGTHSLTESGASCLPWNSMILIGKVYTAQNPSAQALGLGKHNYCRNPDGDAKPWCHVLKNRRLTWEYCDVPSCSTCGLRQYSQPQFRIKGGLFADIASHPWQAAIFAKHRRSPGERFLCGGILISSCWILSAAHCFQERFPPHHLTVILGRTYRVVPGEEEQKFEVEKYIVHKEFDDDTYDNDIALLQLKSDSSRCAQESSVVRTVCLPPADLQLPDWTECELSGYGKHEALSPFYSERLKEAHVRLYPSSRCTSQHLLNRTVTDNMLCAGDTRSGGPQANLHDACQGDSGGPLVCLNDGRMTLVGIISWGLGCGQKDVPGVYTKVTNYLDWIRDNMRP"}}, "tested_on": "rabbit model of thromboembolic stroke", "assay": "Rabbit model of thromboembolic stroke (clot embolization)", "assay_type": "in vivo", "conditions": "16-HETE 1 mg/kg per minute for 1 h from 1 h after embolization; tPA 6.3 mg/kg at 3-5 h; FIG. 3", "experimental": "New Zealand rabbits of either sex, weighing 3-4 kilograms were used for the study. Prior to the start of the experiment, the rabbits were divided into three groups, those that were administered both 16-HETE at a rate of 1 mg/kg per minute for one hour and tPA (Genentech, Inc., San Francisco, Calif.) at a concentration of 6.3 mg/kg, tPA alone, or vehicle.\nOn the day of treatment the animals were fasted for 12 hours with free access to water and then anesthetized with an intramuscular solution of ketamine (50 mg/kg), acepromazine (20 mg) and xylazine (5 mg/kg). This solution was subsequently used to maintain a surgical depth of anesthesia as determined by responses to various physiologic and autonomic stimuli, including mean arterial pressure and response to paw pinch.\nThe animals were prepared for surgery by introducing femoral venous and arterial catheters (PE50 and 90, respectively; Clay Adams, Parsippany, N.J.). The catheters were placed for subsequent blood sampling, including blood gas and arterial pressure, drug infusions, and fluid replacement.\nAll animals were tracheotomized and mechanically ventilated in order to maintain arterial blood gases within a physiologic range. Arterial blood gas measurements (pH, pCO2, pO2) were determined, using a Corning 168 blood gas monitor. […]", "data": [{"molecule": "B1", "values": [{"measurement": "brain infarct size", "result": "significantly larger"}]}]}
